Compound in the data set: N=C(N)c1ccc(-c2cc3ccc(C(=N)N)cc3[nH]2)cc1
As to the kind of experiment: Inhibition of Escherichia coli FtsZ assessed as reduction in substrate KM value.

This is an account of results in ChEMBL document CHEMBL3414448, “Advances in the discovery of novel antimicrobials targeting the assembly of bacterial cell division protein FtsZ” (Eur J Med Chem, 2015).

B1: Cell division protein FtsZ (Escherichia coli K-12), P0A9A6 (protein)
chain: MFEPMELTNDAVIKVIGVGGGGGNAVEHMVRERIEGVEFFAVNTDAQALRKTAVGQTIQIGSGITKGLGAGANPEVGRNAADEDRDALRAALEGADMVFIAAGMGGGTGTGAAPVVAEVAKDLGILTVAVVTKPFNFEGKKRMAFAEQGITELSKHVDSLITIPNDKLLKVLGRGISLLDAFGAANDVLKGAVQGIAELITRPGLMNVDFADVRTVMSEMGYAMMGSGVASGEDRAEEAAEMAISSPLLEDIDLSGARGVLVNITAGFDLRLDEFETVGNTIRAFASDNATVVIGTSLDPDMNDELRVTVVATGIGMDKRPEITLVTNKQVQQPVMDRYQQHGMAPLTQEQKPVAKVVNDNAPQTAKEPDYLDIPAFLRKQAD
For the protein B1, the Km – broadly, the concentration of substrate that gives half-maximal velocity – is 29.4 µM.
